We go through 2 substances from paper PMC2765437.

Data set [1] concerns M-pol (MuLV RT polymerase domain) (MuLV). Put plainly: EMSA. As to conditions: 50 mM Tris-HCl pH 7.8, 60 mM KCl, 1 mM DTT, 0.01% NP40, 10% glycerol; 5 nM labeled template-primer, 10 uL; 6% native gel in Tris-borate pH 8.2 run at 4 C …. On the technique in general: In EMSA bound probe runs differently from free probe, usually more slowly.
Data set [2] relates to chimeric HIV-1 RT (HIV-1 RT polymerase domain + MuLV RT RNase H domain) (HIV-1 / MuLV chimera). Kind of data set: EMSA. The following applies: 50 mM Tris-HCl pH 7.8, 60 mM KCl, 1 mM DTT, 0.01% NP40, 10% glycerol; 5 nM labeled template-primer, 10 uL; 6% native gel in Tris-borate pH 8.2 run at 4 C ….
In data set [3] the test system is chimeric MuLV RT (MHCI RT; MuLV RT polymerase domain + HIV-1 RT RNase H domain) (MuLV / HIV-1 chimera). Kind of data set: EMSA. As to conditions: 50 mM Tris-HCl pH 7.8, 60 mM KCl, 1 mM DTT, 0.01% NP40, 10% glycerol; 5 nM labeled template-primer, 10 uL; 6% native gel in Tris-borate pH 8.2 run at 4 C ….
For data set [4], the system named is wild-type HIV-1 RT (p66/66) (HIV-1). Put plainly: EMSA. As to conditions: 50 mM Tris-HCl pH 7.8, 60 mM KCl, 1 mM DTT, 0.01% NP40, 10% glycerol; 5 nM labeled template-primer, 10 uL; 6% native gel in Tris-borate pH 8.2 run at 4 C ….
Data set [5] has as its system wild-type MuLV RT (MuLV). Kind of data set: EMSA. As to conditions: 50 mM Tris-HCl pH 7.8, 60 mM KCl, 1 mM DTT, 0.01% NP40, 10% glycerol; 5 nM labeled template-primer, 10 uL; 6% native gel in Tris-borate pH 8.2 run at 4 C ….
Data set [6] deals with wild-type p66/66 HIV-1 RT (human immunodeficiency virus type 1 reverse transcriptase) (human immunodeficiency virus type 1). Put plainly: glycerol gradient ultracentrifugation; 50 micrograms of each enzyme alone on 5 ml of 10%-30% linear glycerol gradient in 50 mM Tris HCl pH 8.0, 400 mM NaCl; 48,000 rpm, 20-24 h, SW 50.1 rotor; fractions from the bottom analysed by SDS-PAGE and Coomassie blue.

Consider “49-mer DNA template / 17-mer PBS DNA primer”, for which the Kd amounted to 1.2 nM in data set [1]; 1.5 nM in data set [2]; 3.3 nM in data set [3]; 3.2 nM in data set [4]; 2.7 nM in data set [5].

On to “wild-type p66/66 HIV-1 RT (human immunodeficiency virus type 1 reverse transcriptase) (enzyme)”, for which the stoichiometry N in data set [6] turned out to be 2.

The term Kd denotes the concentration at which binding is half-saturated. In general, stoichiometry N refers to a count of units in the complex or per binding partner.
